These results are taken from patent US9844589.

Test [1] concerns the target CON6 gp140CF (artificial HIV-1 group M consensus).
Test [2] concerns the target CON6 gp120 (artificial HIV-1 group M consensus). The test can be described thus: ELISA endpoint titer (3 fold over background) on CON6 gp120. A general note: In an ELISA, binding on a coated surface is turned into a signal by an enzyme label.

Take 2F5 (antibody): the concentration at endpoint titer in test [1] worked out at 0.016 µg/mL.

As to 447 (antibody), the concentration at endpoint titer in test [2] was less than 0.003 µg/mL.

In test [2], A32 (antibody) came in with a concentration at endpoint titer of less than 0.125 µg/mL.

On to IgG1b12 (antibody), for which the concentration at endpoint titer in test [2] was less than 0.002 µg/mL.
